{"source": "patent US20250002563A1", "about": "(published 2025)", "target": "RBD (UniProt P0DTC2 319-541)", "experiment": "SPR", "data": [{"binder": "Nb21 (VHH) VHH: QVQLVESGGGLVQAGGSLRLSCAVSGLGAHRVGWFRRAPGKEREFVAAIGANGGNTNYLDSVKGRFTISRDNAKNTIYLQMNSLKPQDTAVYYCAARDIETAEYTYWGQGTQVTVSS", "values": [{"measurement": "Kd", "result": "< 1", "unit": "pM"}]}]}
